Values belong to the binder of their own block, whether it stands above or below them. Where no end group is shown, it is not given here.
Legend:
[1] = target: T1, PSD95 protein (domains 1–2 in tandem; aminoacids 61–249) (UniProt P78352 61-249); assay: fluorescence polarisation; competition FP: FITC-labeled peptides fixed at 5 nM, non-saturating protein concentrations (PICK1 600 nM; PSD95 PDZ 1–2 8 µM; Shank3 8 µM), unlabeled peptides or compound varied; normalised to binding and tracer-only controls; settings: both partners purified
T1 construct: PSD95 (postsynaptic density 95), PDZ domains 1-2 in tandem, amino acids 61-249; also called postsynaptic density 95 (PSD95) PDZ 1–2; source: E. coli, purified
T1 sequence (P78352 61-249): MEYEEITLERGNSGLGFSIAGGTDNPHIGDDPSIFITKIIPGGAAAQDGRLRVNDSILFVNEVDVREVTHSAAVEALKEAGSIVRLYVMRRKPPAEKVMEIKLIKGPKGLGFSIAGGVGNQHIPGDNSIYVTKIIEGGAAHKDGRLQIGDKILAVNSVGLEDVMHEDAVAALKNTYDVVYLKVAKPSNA

[2] = target: T2, His-MBP PICK1 construct (amino acids 1–356) (UniProt Q9NRD5 1-356); assay: FRET or BRET; high throughput screen with a FRET-based readout: His-MBP PICK1 (1–356) and FITC-labelled 9 amino acid GluA2 C-terminal peptide; compounds at 50 μM; settings: both partners purified
T2 construct: it is used here for both assays; Details of the construct are in Supplemental Methods; also called truncated, dimeric form of PICK1 lacking the last 59 residues; source: baculovirus expression, purified (Nickel chromatography, size exclusion chromatography)
T2 sequence (Q9NRD5 1-356): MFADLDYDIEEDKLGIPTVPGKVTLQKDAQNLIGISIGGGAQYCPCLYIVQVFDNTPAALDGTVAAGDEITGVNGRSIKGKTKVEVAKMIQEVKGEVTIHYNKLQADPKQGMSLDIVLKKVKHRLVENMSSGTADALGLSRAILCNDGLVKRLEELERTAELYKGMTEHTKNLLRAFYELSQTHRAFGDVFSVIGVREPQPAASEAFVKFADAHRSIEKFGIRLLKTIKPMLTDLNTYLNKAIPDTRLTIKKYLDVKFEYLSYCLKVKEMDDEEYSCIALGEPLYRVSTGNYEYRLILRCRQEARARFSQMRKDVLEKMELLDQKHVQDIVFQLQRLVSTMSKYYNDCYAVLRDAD

binding result [1]: binds
B1: FITC-labeled GluN2B peptide (N-methyl-D-aspartate receptor subunit 2B, 1474–1482) (peptide)
peptide: KLSSIESDV
modifications: also: FITC label, position not given here
notes: N-methyl-D-aspartate receptor subunit 2B (GluN2B), C-terminal amino acids 1474-1482

binding result [2]: binds
B2: FITC-labeled 9 amino acid C-terminal peptide of GluA2 (875–883) (peptide, UniProt P42262 875-883, looked up)
peptide: VYGIESVKI
modifications: also: FITC label, position not given here
notes: AMPA receptor subunit GluA2, C-terminal 9 amino acids, residues 875-883; also called GluA2 peptide; Fluorescein isothiocyanate-labeled peptide comprising the C-terminal amino acids of GluA2

— publication PMC6128908, “Potent PDZ-Domain PICK1 Inhibitors that Modulate Amyloid Beta-Mediated Synaptic Dysfunction” (Scientific Reports, 2018)
